Reference: US20240002497A1 (Merck Sharp & Dohme, published 2024)
Changes are numbered by the printed parent chain. Names and notes keep the numbering of the source. Like-named read-outs stand apart in the source and are kept apart here. One block for each binder: values may come before it.

Assays:
[1] = target: huNav1.7α + β1 (human); assay: cell-based or functional assay
[2] = target: T1, rhNav1.7α+β1-β2-β3 (rhesus monkey α subunit with human β …); assay: binding FACS, CHO FlpIn cells
T1 construct: P2A cleaves it into α, β1, β2, β3; also called rhNav1.7-beta1-beta2-beta3
Procedure: (§1) Binding of the ISVDs to cell-expressed Nav1.7α was detected via murine anti-Flag (Sigma, catalog #F1804). Briefly, cells were resuspended in FACS buffer (PBS, 10% FBS, NaN₃) and transferred to a 96-well V-bottom plate at 1×10^5 cells/well. Purified FLAG3-tagged ISVD was diluted in FACS buffer and added to the cells for 30 minutes at 4° C. […] Prior to the read-out, the samples were resuspended in 1 μg/mL propidium iodide (Sigma, catalog #P4170) to exclude dead cells. Between each step, the cells were centrifuged for 5 minutes at 200 grams and washed with 100 μL/well FACS buffer.
(§2) Crude periplasmic extracts containing ISVDs from phage display selections (as described above) were screened in FACS for binding to huNav1.7α but not to huNav1.5a. […] As used in Table 8, the drawings, and throughout the description, Navβ1, Navβ2, and Navβ3 are human homologs unless specifically identified otherwise.

[3] = target: T2, huNav1.7α+β1-β2-β3 (human, UniProt Q15858 1-1988; Q07699 19-218; O60939 30-215; Q9NY72 23-215); assay: binding FACS, CHO FlpIn cells
T2 construct: 5N11S variant; also called huNav1.7-beta1-beta2-beta3; huNav1.7α+Navβ1-Navβ2-Navβ3
How it was run: (§3)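 Flow cytometry read-out of anti-Flag signal on propidium iodide-negative cells measured ISVD binding. Purified FLAG3-tagged ISVD, diluted in PBS with 10% FBS and NaN₃, was applied to the cells for 30 minutes at 4° C.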

[4] = target: T3, huNav1.7α+β1 (human, UniProt Q15858 1-1988; Q07699 19-218); assay: binding FACS, HEK293 cells
T3 construct: also called huNav1.7-beta1; HEKa/β1
Procedure: as §1, §2

[5] = target: T4, huNav157chimera14+β1-β2-β3 (human, UniProt Q07699 19-218; O60939 30-215; Q9NY72 23-215); assay: binding FACS, HEK FlpIn cells
T4 construct: HEK FlpIn line; also called huNav157 chimera 14-beta1-beta2-beta3; Nav157ch14-β1-β2-β3
Procedure: as §1, §2

[6] = target: T2, huNav1.7α+β1-β2-β3; assay: binding FACS, HEK FlpIn cells
Procedure: as §1, §2

[7] = target: T5, huNav1.5α+β1-β2-β3 (human, UniProt Q14524 1-2016; A5A6L6 19-218; O60939 30-215; Q2KI11 23-215); assay: binding FACS, HEK FlpIn cells
T5 construct: in the cell P2A cleaves it into α, β1, β2, β3; also called huNav1.5-beta1-beta2-beta3
Procedure: as §1, §2

[8] = target: T3, huNav1.7α+β1; assay: binding FACS, HEKa/β1 cells
How it was run: as §3

[9] = target: huNav1.1α (human, UniProt P35498 1-2009); assay: binding FACS on stable huNav1.x paralog HEK293T cell lines
[10] = target: T6, huNav1.4α (human, UniProt P35499 1-1836); assay: as above
T6 construct: also called huNav1.4 (alpha subunit)

[11] = target: T7, huNav1.6α (human, UniProt Q9UQD0 1-1980); assay: as above
T7 construct: also called huNav1.6 (alpha subunit)

[12] = target: T8, huNav1.3α (human, UniProt Q9NY46 1-2000); assay: as above
T8 construct: also called huNav1.3 (alpha subunit)

[13] = target: T9, huNav1.2α (human, UniProt Q99250 1-2005); assay: as above
T9 construct: also called huNav1.2 (alpha subunit)

[14] = target: T10, huNav1.5α (human, UniProt Q14524 1-2016); assay: as above
T10 construct: also called huNav1.5 (alpha subunit)

[15] = target: T11, huNav1.8α (human, UniProt Q9Y5Y9 1-1956); assay: as above
T11 construct: also called huNav1.8 (alpha subunit)

[16] = target: T12, huNav1.7α (human, UniProt Q15858 1-1988); assay: binding FACS, HEKa cells
T12 construct: HEK cells expressing the α subunit alone; also called HEKa; HEK huNav1.7α
How it was run: as §3

[17] = target: T13, huNav1.7α + β1-β2-β3 (human, UniProt Q15858 1-1988; A5A6L6 19-218; O60939 30-215; Q2KI11 23-215); assay: cell-based or functional assay
[18] = target: rhNav1.7α + β1-β2-β3 (rhesus monkey); assay: cell-based or functional assay
[19] = target: T14, huNav1.7α (human, UniProt Q15858 1-1988); assay: cell-based or functional assay
[20] = target: Rhesus Nav1.7α (rhesus, UniProt Q15858 1-1988 (human entry)); assay: cell-based or functional assay
[21] = target: T13, huNav1.7α + β1-β2-β3; assay: competition FACS vs EC25 of F103275B05(N93R), CHO FlpIn
[22] = target: T15, rhNav1.7α + β1-β2-β3 (rhesus monkey); assay: competition FACS vs EC40 of F103275B05(N93R), CHO FlpIn
T15 construct: also called rhNav1.7-beta1-beta2-beta3; rhNav1.7-β1-β2-β3

[23] = target: T16, huNav1.7α + β1 (human); assay: competition FACS vs EC25 of F103275B05(N93R), HEK
T16 construct: HEK293 cells; also called huNav1.7-beta1; huNav1.7-β1

[24] = target: T14, huNav1.7α; assay: competition FACS vs EC25 of F103275B05(N93R), HEK
[25] = target: T13, huNav1.7α + β1-β2-β3; assay: competition FACS vs EC25 of F103275B05(N93R), HEK FlpIn
[26] = target: T2, huNav1.7α+β1-β2-β3; assay: binding FACS, CHO FlpIn cells; remark: listed apart in the source
Procedure: as §1, §2

[27] = target: T12, huNav1.7α; assay: binding FACS, HEKa cells; remark: listed apart in the source
[28] = target: T3, huNav1.7α+β1; assay: binding FACS, HEKa/β1 cells; remark: listed apart in the source
[29] = target: T15, rhNav1.7α + β1-β2-β3; assay: cell-based or functional assay; remark: listed apart in the source
[30] = target: T16, huNav1.7α + β1; assay: cell-based or functional assay; remark: listed apart in the source
[31] = target: T15, rhNav1.7α + β1-β2-β3; assay: cell-based or functional assay; remark: listed apart in the source
[32] = target: T16, huNav1.7α + β1; assay: cell-based or functional assay; remark: listed apart in the source
[33] = target: T16, huNav1.7α + β1; assay: binding FACS, HEK
[34] = target: T14, huNav1.7α; assay: binding FACS, HEK

T11 sequence (Q9Y5Y9 whole entry): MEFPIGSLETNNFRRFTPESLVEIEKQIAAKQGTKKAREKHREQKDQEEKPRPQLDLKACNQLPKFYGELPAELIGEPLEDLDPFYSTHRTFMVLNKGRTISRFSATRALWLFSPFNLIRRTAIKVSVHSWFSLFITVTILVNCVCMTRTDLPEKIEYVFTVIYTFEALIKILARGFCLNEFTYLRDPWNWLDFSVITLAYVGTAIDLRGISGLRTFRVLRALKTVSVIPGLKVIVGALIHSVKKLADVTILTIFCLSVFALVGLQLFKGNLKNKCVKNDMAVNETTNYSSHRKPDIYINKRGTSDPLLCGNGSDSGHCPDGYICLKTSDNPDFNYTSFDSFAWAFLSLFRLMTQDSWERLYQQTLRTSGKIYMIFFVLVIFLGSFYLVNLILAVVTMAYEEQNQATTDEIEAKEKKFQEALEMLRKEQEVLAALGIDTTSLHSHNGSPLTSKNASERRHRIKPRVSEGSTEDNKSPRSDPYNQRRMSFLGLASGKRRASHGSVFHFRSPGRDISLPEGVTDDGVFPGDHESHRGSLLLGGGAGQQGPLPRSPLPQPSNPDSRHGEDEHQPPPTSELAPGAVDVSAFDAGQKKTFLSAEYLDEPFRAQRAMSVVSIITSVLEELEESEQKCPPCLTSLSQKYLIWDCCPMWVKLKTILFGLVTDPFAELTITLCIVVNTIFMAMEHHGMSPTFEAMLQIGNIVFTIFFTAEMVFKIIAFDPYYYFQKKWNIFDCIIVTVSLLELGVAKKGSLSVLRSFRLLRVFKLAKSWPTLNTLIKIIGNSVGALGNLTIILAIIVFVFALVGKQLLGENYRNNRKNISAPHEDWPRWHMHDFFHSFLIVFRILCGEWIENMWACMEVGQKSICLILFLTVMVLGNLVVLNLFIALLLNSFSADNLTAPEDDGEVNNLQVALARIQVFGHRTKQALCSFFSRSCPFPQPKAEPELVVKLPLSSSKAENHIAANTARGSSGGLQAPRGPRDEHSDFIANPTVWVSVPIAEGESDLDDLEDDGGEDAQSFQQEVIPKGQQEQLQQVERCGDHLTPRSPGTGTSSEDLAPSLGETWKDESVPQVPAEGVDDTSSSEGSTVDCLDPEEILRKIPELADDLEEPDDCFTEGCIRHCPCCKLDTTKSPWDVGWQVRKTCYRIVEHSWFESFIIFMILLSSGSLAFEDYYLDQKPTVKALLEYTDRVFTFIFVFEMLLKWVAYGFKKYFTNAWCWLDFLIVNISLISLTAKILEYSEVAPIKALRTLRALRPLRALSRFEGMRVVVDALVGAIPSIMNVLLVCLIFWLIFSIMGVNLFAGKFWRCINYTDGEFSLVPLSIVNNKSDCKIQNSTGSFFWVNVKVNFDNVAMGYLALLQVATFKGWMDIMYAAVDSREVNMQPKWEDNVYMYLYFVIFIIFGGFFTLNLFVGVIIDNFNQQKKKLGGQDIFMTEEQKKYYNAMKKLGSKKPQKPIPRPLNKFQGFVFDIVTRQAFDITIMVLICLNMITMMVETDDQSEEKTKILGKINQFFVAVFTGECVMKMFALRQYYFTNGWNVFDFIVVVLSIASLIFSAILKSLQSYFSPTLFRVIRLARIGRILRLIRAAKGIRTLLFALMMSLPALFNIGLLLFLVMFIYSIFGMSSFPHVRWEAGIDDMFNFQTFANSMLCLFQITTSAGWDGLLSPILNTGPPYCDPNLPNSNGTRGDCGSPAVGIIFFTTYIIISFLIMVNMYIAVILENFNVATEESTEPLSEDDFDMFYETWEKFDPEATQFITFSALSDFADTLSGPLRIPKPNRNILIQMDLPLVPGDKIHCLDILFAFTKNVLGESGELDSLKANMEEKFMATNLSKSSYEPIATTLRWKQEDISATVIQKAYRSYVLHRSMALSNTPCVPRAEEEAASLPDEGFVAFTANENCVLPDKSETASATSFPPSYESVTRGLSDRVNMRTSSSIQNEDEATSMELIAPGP
T7 sequence (Q9UQD0 whole entry): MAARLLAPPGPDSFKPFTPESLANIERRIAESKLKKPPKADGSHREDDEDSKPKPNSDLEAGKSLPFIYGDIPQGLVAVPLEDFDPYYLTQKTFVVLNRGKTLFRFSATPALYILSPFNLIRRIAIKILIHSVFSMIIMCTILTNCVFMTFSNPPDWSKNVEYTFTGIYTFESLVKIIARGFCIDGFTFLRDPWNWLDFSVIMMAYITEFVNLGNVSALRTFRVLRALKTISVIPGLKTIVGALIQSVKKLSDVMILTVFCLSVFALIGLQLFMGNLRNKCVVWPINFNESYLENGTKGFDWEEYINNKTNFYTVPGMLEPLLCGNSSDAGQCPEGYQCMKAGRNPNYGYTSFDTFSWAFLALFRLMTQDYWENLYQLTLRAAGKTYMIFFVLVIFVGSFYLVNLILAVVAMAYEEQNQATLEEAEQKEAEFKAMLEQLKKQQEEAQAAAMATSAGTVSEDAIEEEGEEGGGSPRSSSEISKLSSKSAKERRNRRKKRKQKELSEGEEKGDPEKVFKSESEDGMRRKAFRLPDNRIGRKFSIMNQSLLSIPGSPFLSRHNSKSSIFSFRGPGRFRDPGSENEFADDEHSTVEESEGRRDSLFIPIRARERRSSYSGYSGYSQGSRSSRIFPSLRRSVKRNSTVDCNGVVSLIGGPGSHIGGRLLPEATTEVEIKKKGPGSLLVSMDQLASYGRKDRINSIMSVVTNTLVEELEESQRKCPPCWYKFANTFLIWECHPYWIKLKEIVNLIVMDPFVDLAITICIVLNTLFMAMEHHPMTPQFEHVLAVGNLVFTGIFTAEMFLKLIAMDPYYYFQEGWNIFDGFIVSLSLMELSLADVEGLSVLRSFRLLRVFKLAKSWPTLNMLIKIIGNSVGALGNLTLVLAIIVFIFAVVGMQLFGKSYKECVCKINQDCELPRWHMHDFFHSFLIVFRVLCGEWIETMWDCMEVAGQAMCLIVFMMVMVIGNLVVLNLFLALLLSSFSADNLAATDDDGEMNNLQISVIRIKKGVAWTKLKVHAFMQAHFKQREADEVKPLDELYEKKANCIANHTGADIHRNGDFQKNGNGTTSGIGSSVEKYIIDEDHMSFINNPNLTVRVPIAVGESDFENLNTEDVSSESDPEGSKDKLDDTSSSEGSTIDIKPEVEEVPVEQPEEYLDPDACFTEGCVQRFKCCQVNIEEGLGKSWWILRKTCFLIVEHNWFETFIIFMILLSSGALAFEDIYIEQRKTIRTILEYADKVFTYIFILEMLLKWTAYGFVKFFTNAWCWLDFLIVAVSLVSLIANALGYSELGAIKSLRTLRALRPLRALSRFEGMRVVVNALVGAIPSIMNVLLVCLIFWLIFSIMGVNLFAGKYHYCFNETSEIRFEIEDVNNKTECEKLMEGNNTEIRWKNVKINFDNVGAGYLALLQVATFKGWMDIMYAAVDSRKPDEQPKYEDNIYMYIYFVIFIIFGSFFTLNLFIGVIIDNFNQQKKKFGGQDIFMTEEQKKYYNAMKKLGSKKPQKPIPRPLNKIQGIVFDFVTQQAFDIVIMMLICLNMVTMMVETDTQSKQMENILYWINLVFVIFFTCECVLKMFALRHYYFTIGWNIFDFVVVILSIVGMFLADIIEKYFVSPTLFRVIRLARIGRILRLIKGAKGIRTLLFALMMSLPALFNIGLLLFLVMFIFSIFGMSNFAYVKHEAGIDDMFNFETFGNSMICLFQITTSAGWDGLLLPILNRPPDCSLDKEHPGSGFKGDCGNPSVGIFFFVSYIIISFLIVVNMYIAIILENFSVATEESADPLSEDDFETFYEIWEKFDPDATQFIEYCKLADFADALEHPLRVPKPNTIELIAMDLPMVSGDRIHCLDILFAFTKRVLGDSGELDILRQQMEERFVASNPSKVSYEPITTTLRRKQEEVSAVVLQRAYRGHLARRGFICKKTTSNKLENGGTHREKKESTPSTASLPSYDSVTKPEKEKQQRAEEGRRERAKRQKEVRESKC

B1: F0103362B08 (parental)-FLAG-HIS6 (VHH)
VHH: EVQLVESGGGLVQAGGSLRLSCAASVRPFSTSAMGWFRQAPEKEREAVAGILWNGIVTYYADSVKGRFTISRDNAKNEVYLQMNKLKPEDTAVYYCALDRDYGGRSFSAYEYEYWGQGTLVTVSS
Qpatch IC50 [1]: 1 nM

B3: F0103454D07 (parental)-FLAG-HIS6 (VHH)
VHH: EVQLVESGGGLVQPGGSLRLSCVASGGIININYIAWYRQTPGKQRDLVARISSDDTIKYGDSVKGRFAMSRDKVKNMVHLQMNSLTTEDTGVYVCSALITPWTGDTRTYWGRGTLVTVSS
Qpatch IC50 [1]: 38 nM

B5: F0103275B05 (parental)-FLAG-HIS6 (VHH)
VHH: EVQLVESGGGLVQPGGSLRLSCAASGSIFNINSMAWYRRAPGKQRELVASSTNGGSTNYADSVKGRFTISRDNAKRVYLQMNSLTPEDTAVYYCNALLQPSIYDISRTYWGQGTLVTVSS
notes: also called F01033275B05
EC50 [26]: 27 nM | EC50 [4]: 28 nM | EC50 [27]: 10 nM | EC50 [5]: 39 nM | EC50 [6]: 37 nM | binding result [7]: no binding | EC50 [28]: 48 nM | binding result [9]: no binding | binding result [10]: no binding | binding result [11]: no binding | binding result [12]: no binding | binding result [13]: no binding | binding result [14]: no binding | binding result [15]: no binding

B7: 66ASP (Fc fusion)
chain: B5 VHH with S27P, I28V, S50Y, N53P, G55W, S56D, T57W, N95R, A96W
notes: also called F010300659-5GS-Fc; not shown: 5GS linker; Fc moiety
Qpatch IC50 [M], HEK cells [29]: 5.2e-08 M | Qpatch IC50 [M], HEK cells [30]: 9.2e-08 M | EC50 [33]: 42 nM | EC50 [34]: 61 nM

Further lines, with some results ahead:

binding result [2]: no binding | EC50 [3]: 4.7 nM | EC50 [4]: 1.2 nM | EC50 [5]: 3.6 nM | EC50 [6]: 3.1 nM | EC50 [8]: 1.7 nM | binding result [9]: no binding | binding result [10]: no binding | binding result [11]: no binding | binding result [12]: no binding | binding result [13]: no binding | binding result [15]: no binding | EC50 [16]: 2.7 nM
B2: F0103387G05 (parental)-FLAG-HIS6 (VHH)
VHH: EVQLVESGGGLVQAGGSLRLSCDASGRILRIGYMRWHRQGAGKQREFVARITDDSATDYADSVKGRFTISRDNAKNTVYLQMNNLNPEDTAVYYCEALVTASVRGGSIHSGTYWGRGTLVTVSS
binding result [7]: no binding | binding result [14]: no binding

Qpatch IC50 [17]: 2.6 nM | Qpatch IC50 [18]: 2.8 nM | Qpatch IC50 [19]: 123 nM | Qpatch IC50 [20]: 93 nM | IC50 [21]: 12 nM | IC50 [22]: 6.5 nM | IC50 [23]: 4.3 nM | IC50 [24]: 110 nM | IC50 [25]: 10 nM
B4: F010302375 (bispecific antibody)
chain: DVQLVESGGGLVQPGGSLRLSCAASGSIFNINSMAWYRRAPGKQRELVASSTNGGSTNYADSVKGRFTISRDNAKRVYLQMNSLTPEDTAVYYCRALLQPSIYDISRTYWGQGTLVTVSSGGGGSGGGGSGGGGSGGGGSGGGGSGGGGSGGGGSGGGGSGGGGSGGGGSEVQLVESGGGLVQAGGSLRLSCAASGRAFSTLAMGWFRQAPGKEREFVAAISRNGNNSATGDSLKGRFTISRDSTKSTVFLQMNTLKPEDTAVYYCAAISTPSASHPYVRKESYRYWGQGTQVTVSSGAADYKDHDGDYKDHDIDYKDDDDKGAAHHHHHH
notes: also called F0103275B05(E1D, N93R)-50GS-F0103478E09(L108Q)-FLAG3-HIS6

Qpatch IC50 [M], HEK cells [29]: 1.8e-07 M | Qpatch IC50 [M], HEK cells [30]: 8.5e-08 M | Qpatch IC50 [31]: 199 nM | Qpatch IC50 [32]: 85 nM | EC50 [33]: 11 nM | EC50 [34]: 5.4 nM
B6: F010300659 (VHH)
VHH: B5 VHH with S27P, I28V, S50Y, N53P, G55W, S56D, T57W, N95R, A96W
notes: also called F0103275B05(S27P, I28V, S50Y, N53P, G55W, S56D, T57W, N93R, A94W)-FLAG3 + HIS6

Qpatch IC50 [17]: 2.3 nM | Qpatch IC50 [18]: 2.6 nM | Qpatch IC50 [19]: 115 nM | Qpatch IC50 [20]: 103 nM | IC50 [21]: 10 nM | IC50 [22]: 6.6 nM | IC50 [23]: 5.2 nM | IC50 [24]: 80 nM | IC50 [25]: 12 nM
B8: F010302378 (bispecific antibody)
chain: DVQLVESGGGLVQPGGSLRLSCAASGSIFNINSMAWYRRAPGKQRELVASSTNGGSTNYADSVKGRFTISRDNAKRVYLQMNSLTPEDTAVYYCRALLQPSIYDISRTYWGQGTLVTVSSGGGGSGGGGSGGGGSGGGGSGGGGSGGGGSGGGGSGGGGSGGGGSGGGGSEVQLVESGGGLVQAGSSLSLSCAASGRALSTYAMGWFRQAPGKEREFVARISRSGITTYYTDSVKGRFTISRDRAKDTVYLQMNSLKPEDTAIYLCAADASTNPAGYYLRNRYDYWGQGTLVTVSSGAADYKDHDGDYKDHDIDYKDDDDKGAAHHHHHH
notes: also called F0103275B05(E1D, N93R)-50GS-F0103495F09-FLAG3-HIS6
